“And” between values parts separate entries of the source, which are not always exact repeats. Equal values may be shown once.
B1: NI-607.531_C8 IgG4 S228P (antibody, V domains shown)
VH: EVQLVESGGGVVQPGRSLRLSCTASGFTFSFYSVHWVRQAPGKGLEWVAVISYDGSTKYYADSVKGRFTISRDNSKNTLYLQMDSLRTEDTAVYYCASPPISPIPAAGTPLAYWGQGTLVTVSS
VL: not shown
B2: NI-607.427_C5 IgG4 S228P (antibody, V domains shown)
VH: QVQLVQSGAEVKKPGASVKVSCKASGYTFTSYGISWVRQAPGQGLEWMGWISAYNGNTNYAQKLQGRVTMTTDTSTSTAYMELRSLRSDDTAVYYCARDNRAGWDQLDYWGQGTLVTVSS
VL: not shown
B3: NI-607.532_C11 IgG4 S228P (antibody, V domains shown)
VH: QVQLVESGGGLIQPGGSLRLSCAASGFTVSSNYMSWVRQAPGKGLEWVSVIYSGGSTYYADSVKGRFTISRDNSKNTLFLQMNSLRAEDTAVYYCARDLQYYGMDVWGQGTTVTVSS
VL: DIQMTQSPSFLSASVGDRVTITCRASQGISSYLAWYQQKPGKAPKLLIYAASTLQSGVPSRFSGSGSGTEFTLTISSLQPEDFATYYCQQLDSYPPRDTFGQGTKVEIK
B4: NI-607.532_F9 IgG4 S228P (antibody, V domains shown)
VH: EVQLVESGGNLIQPGGSLRLSCAASGFTVSSNYMSWVRQAPGKGLEWVSVIYSGGSTYYADSVKGRFTISRDNSRNTLYLQMNSLRAEDTAVYFCARDRVVRGVRGNGMDVWGQGTTVTVSS
VL: AIRMTQSPSSLSASVGDRVTITCQASQDINIYLNWYQQRPGKAPKLLIYDASNLETGVPSRFSGSGSGTDFTFTISSLQPEDIATYYCHQYDNLPRTFGQGTKVDIK
B5: NI-607.649_B11 (antibody, V domains shown)
VH: QVQLVQSGAEVKKPGSSVKVSCKASGGTFSNYAISWVRQAPGQGLEWMGGIIPIFGTANYAQKFQGRVTITADESTSTAYMELSSLRSEDTAVYYCAGDRWYYDSSGYPTPDEYFQHWGQGTQVTVSS
VL: QSVLTQPPSVSGAPGQRVTISCTGSSSNIGAGYDVHWYQQLPGTAPKLLIYGNSNRPSGVPDRFSGSKSGTSASLAITGLQAEDEADYYCQSYDSSLSGVVFGGGTKLTVL
B6: NI-607.649_B11 IgG4 S228P (antibody, V domains shown)
VH: B5 VH
VL: B5 VL

What was measured:
[1] = target: T1, SARS-CoV-2-S1 (RBD)-His protein (Trenzyme) (SARS-CoV-2, UniProt P0DTC2 319-541)
[2] = target: T1, SARS-CoV-2-S1 (RBD)-His protein …; assay: direct ELISA on coated RBD-His
[3] = target: T1, SARS-CoV-2-S1 (RBD)-His protein …; assay: competition ELISA, RBD binding to coated ACE2
[4] = target: 2019-nCov Spike protein (S1 mFC tag) (SARS-CoV-2, UniProt P0DTC2 16-685)
[5] = target: T1, SARS-CoV-2-S1 (RBD)-His protein …; assay: direct ELISA on coated RBD-His (FIG. 1D)

Binder	IC50 (read off the curve) [1] [µg/mL]	IC50 [3]	also measured
B1	~0.03	~0.191 µg/mL	EC50 [2]: ~8.5 pM
B2		~2.79 µg/mL and ~18.6 nM	
B3		~2.32 µg/mL and ~15.4 nM	
B4		~1.09 µg/mL and ~7.3 nM	
B5			EC50 (read off the curve) [4]: ~500 pM
B6	~0.05	~0.047 µg/mL	EC50 [5]: ~8.5 pM

— patent publication US20230242624A1 (NEURIMMUNE, published 2023)
